This passage reports Kd and EC50 results from US20210170043A1 (Novartis, published 2021).

Assay [1] concerns the target T1, DC-SIGN Carbohydrate Recognition Domain (CRD), His-tagged (human, UniProt Q9NNX6 250-404).
T1 construct: also called DC-SIGN CRD; not shown: His tag used for capture
T1 sequence: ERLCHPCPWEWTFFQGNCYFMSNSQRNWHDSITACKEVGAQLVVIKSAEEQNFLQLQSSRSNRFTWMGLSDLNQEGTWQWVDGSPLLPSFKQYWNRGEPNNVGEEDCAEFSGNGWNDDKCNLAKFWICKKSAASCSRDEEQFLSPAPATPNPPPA
Kind of assay: SPR (Biacore 8K), His-tagged DC-SIGN CRD captured at high density on chip, antibody as analyte. In general terms: SPR reads the build-up and loss of mass on a sensor chip optically.

Assay [2] deals with T2, human DC-SIGN (full length, expressed on cells) (human, UniProt Q9NNX6 1-404).
T2 construct: Also used for DC-SIGN on human monocyte-derived cells and on cells of human DC-SIGN transgenic mice in the functional rows; also called CD209; human DC-SIGN CHO
T2 sequence: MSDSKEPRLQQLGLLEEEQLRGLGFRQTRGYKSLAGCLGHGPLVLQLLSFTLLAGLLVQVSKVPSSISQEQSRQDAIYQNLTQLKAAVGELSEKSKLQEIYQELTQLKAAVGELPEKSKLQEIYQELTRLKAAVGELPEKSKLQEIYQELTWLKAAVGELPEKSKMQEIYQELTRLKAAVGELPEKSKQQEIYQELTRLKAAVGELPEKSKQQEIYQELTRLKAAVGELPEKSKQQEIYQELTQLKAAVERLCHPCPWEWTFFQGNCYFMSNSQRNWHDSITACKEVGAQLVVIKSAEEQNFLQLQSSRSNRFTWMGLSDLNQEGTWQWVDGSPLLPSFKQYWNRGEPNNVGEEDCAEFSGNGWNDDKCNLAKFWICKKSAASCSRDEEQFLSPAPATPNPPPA
Briefly: flow cytometry, IgG titrated on human DC-SIGN CHO cells. Background: Flow cytometry measures light scatter and fluorescence of single cells or particles in a stream.

Assay [3] deals with T1, DC-SIGN Carbohydrate Recognition Domain …. Briefly: SPR (Biacore 8K), antibody captured on anti-human IgG Fc chip, DC-SIGN CRD as analyte.
The target in assay [4] is T3, cynomolgus monkey DC-SIGN (full length, expressed on CHO cells) (cynomolgus monkey, UniProt Q95J96 1-403 (rhesus entry)).
T3 construct: also called cyno DC-SIGN; cyno DC-SIGN CHO
T3 sequence: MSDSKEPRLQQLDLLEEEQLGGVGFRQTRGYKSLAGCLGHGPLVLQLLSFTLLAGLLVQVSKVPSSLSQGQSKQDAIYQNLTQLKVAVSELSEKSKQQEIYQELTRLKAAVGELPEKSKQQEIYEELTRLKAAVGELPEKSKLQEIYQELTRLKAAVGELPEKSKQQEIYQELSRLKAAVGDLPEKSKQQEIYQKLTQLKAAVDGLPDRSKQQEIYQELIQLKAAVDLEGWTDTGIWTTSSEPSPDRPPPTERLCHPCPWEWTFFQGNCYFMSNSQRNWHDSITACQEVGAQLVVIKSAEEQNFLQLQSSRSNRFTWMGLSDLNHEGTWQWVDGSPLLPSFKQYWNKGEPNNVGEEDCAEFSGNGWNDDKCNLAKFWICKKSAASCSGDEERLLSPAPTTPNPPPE
Briefly: flow cytometry, IgG titrated on cyno DC-SIGN CHO cells.

Assay [5] deals with T2, human DC-SIGN (full length, expressed …). Kind of assay: flow cytometry, IgG titrated on human DC-SIGN K562 cells.

B1: 960K03 Parental (antibody, V domains shown)
VH: QVTLRESGPALVKPTQTLTLTCTFSGFSLSTGGMCVSWIRQPPGKALEWLALIDWDDDKYYSTSLKTRLTISKDTSKNQLVLTMTNMDPVDTATYYCARAHSGSYFDFWGQGTLVTVSS
VL: DIQMTQSPSTLSASVGDRVTITCRASQRISNWLAWYQQKPGKAPKLLIYKASSLESGVPSRFSGSGSGTEFTLTISSLQPDDFATYYCQQFNSYWTFGQGTKVEIKR
The term Kd denotes the concentration at which binding is half-saturated. Usually EC50 stands for the concentration at which the effect is half-maximal. For the molecule B1, the dissociation constant (Kd) turned out to be 0.0008 µM in assay [1] and 0.955 µM in assay [3]. Further, the EC50 is 0.1 mg/L in assay [2] and 0.02 mg/L in assay [4].

B2: 952P16 Parental (antibody, V domains shown)
VH: QVTLRESGPALVKPTQTLTLTCTFSGFSLSTSGVSVSWIRQPPGKALEWLALIDWDDDKYYSTSLKTRLTISKDTSKNQVVLTMTNMDPVDTATYYCARTPSGSYGRYFDLWGRGTLVTVSS
VL: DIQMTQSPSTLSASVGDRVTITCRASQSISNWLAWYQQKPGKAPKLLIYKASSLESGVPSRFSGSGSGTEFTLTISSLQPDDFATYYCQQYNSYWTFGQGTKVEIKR
Regarding B2, the Kd in assay [1] worked out at 0.0038 µM; in assay [3] it was 0.395 µM. In addition, the EC50 in assay [5] was determined as 0.04 mg/L; in assay [2], 0.06 mg/L; in assay [4] it was 0.02 mg/L.

B3: 958N05 Parental (antibody, V domains shown)
VH: QVTLRESGPALVKPTQTLTLTCTFSGFSLSTSGISVSWIRQPPGKALEWLALIDWDDDKYYSTSLKTRLTISKDTSKNQVVLTMTNMDPVDTATYYCARTPSGSYGRYFDLWGRGTLVTVSS
VL: DIQLTQSPSTLSASVGDRVTITCRASQSISNWLAWYQQKPGKAPKLLIYKASSLESGVPSRFTGSGSGTEFTLTISSLQPDDFATYYCQQYNSYWTFGQGTKVEIKR
As for B3, the dissociation constant Kd is 0.0017 µM in assay [1] and 0.174 µM in assay [3]. The figures for the half-maximal effective concentration (EC50) in assay [5], in assay [2] and in assay [4] were 0.05 mg/L, 0.07 mg/L and 0.08 mg/L, respectively.

B4: 952G04 Parental (antibody, V domains shown)
VH: QVTLRESGPALVKPTQTLTLTCTFSGFSLSTSGVSVTWIRQPPGKALEWLALIDWDDDKYYSTSLKTRLAISKDTSKNQVVLTMTNMDPVDTATYYCARTPSGSYGRYFDLWGRGTLVTVSS
VL: DIQMTQSPSTLSASVGDRVTITCRASQSISTWLAWYQQKPGKAPKLLIYEASSLESGVPSRFSGSGSGTEFTLTISSLQPDDFATYYCQQYNSYWTFGQGTKVEIKR
In the case of B4, the results for the Kd in assay [1] and in assay [3] were 0.0037 µM and 0.346 µM, respectively. Moreover, the half-maximal effective concentration (EC50) came to 0.26 mg/L in assay [5], 0.11 mg/L in assay [2] and 0.19 mg/L in assay [4].

B5: 550E03 Parental (antibody, V domains shown)
VH: QVTLRESGPALVKPTQTLTLTCTFSGFSLSTSGMSVSWIRQPPGKALEWLALIDWDDDKYYSTSLKTRLTISKDTSKNQVVLTMTNMDPVDTATYYCARMALRHAFDAWGQGTMVTVSS
VL: QSVLTQPPSVSGAPGQRVTISCTGSSSNIGAGYDVHWYQQLPGTAPKLLIYVNSNRPSGVPDRFSGSKSGTSASLAITGLQAEDEADYYCQSYDSSLSGWVFGGGTKLTVLG
notes: also called 550Ee03
Regarding B5, the Kd was 0.0058 µM in assay [1] and 0.523 µM in assay [3]. Besides, the concentration giving a half-maximal response (EC50) in assay [5] amounted to 1.5 mg/L; in assay [2], 0.26 mg/L; in assay [4] it was 0.39 mg/L.

B6: 906C18 Parental (antibody, V domains shown)
VH: EVQLVESGGGLVQPGGSLRLSCAASGFTFNNYWMNWVRQAPGKGLEWVANIRQDGSEKYYVDSVKGRFTISRDNAKNSLFLQMNSLRAEDTAVYYCARERAYCSTTSCPDYSNDYWGQGTLVTVSS
VL: EIVMTQSPATLSVSPGERATLSCRASQTINNNLAWFQQKPGQTPRLLIYGASTGATGIPARFSGSGSGTEFTLTISSLQSEDFAVYYCQQYNNWPRGLTFGGGTKVEIKR
B6: the results for the Kd in assay [1] and in assay [3] were 0.016 µM and 1.95 µM, respectively. For the same molecule, the EC50 in assay [5] was determined as 1.72 mg/L; in assay [2], 0.21 mg/L; in assay [4] it was 0.77 mg/L.

B7: 2B2 Chimeric (antibody, V domains shown)
VH: EVQLQQSGAELVRPGSSVKMSCKTSGYTFTNYGINWVKQRPGQGLEWIGYIYIGNDYTEYNERFKGKATLTSDTSSSTAHIQLNSLTSEDSAIYFCARLYYGSSLYSYAMDYWGQGTSVTVSS
VL: DIVMTQAAPSVSVTPGESVSISCRSSKSLLHSSGNTYLYWFLQRPGQSPQLLISRMSNLASGVPDRFSGSGSGTAFTLRISRVEAEDVGVYYCMQHLEYPYTFGGGTKLELKR
notes: Murine variable regions on human constant regions
For the molecule B7, the half-maximal effective concentration (EC50) in assay [5] was 0.28 mg/L; in assay [2], 0.23 mg/L; in assay [4], 0.32 mg/L.

B8: 2B2 (parental antibody) (antibody, V domains shown)
VH: EVQLQQSGAELVRPGSSVKMSCKTSGYTFTNYGINWVKQRPGQGLEWIGYIYIGNDYTEYNERFKGKATLTSDTSSSTAHIQLNSLTSEDSAIYFCARLYYGSSLYSYAMDYWGQGTSVTVSS
VL: DIVMTQAAPSVSVTPGESVSISCRSSKSLLHSSGNTYLYWFLQRPGQSPQLLISRMSNLASGVPDRFSGSGSGTAFTLRISRVEAEDVGVYYCMQHLEYPYTFGGGTKLELK
notes: also called antibody 2B2
Regarding B8, the Kd in assay [1] is 0.0005 µM; in assay [3], 0.032 µM.

B9: 2B2 Hz (antibody, V domains shown)
VH: QVQLVQSGAEVKKPGASVKVSCKASGYTFTNYGINWVRQAPGQRLEWMGYIYIGNDYTEYNERFKGRVTITSDTSASTAYMELSSLRSEDTAVYYCARLYYGSSLYSYAMDYWGQGTTVTVSS
VL: DIVMTQSPLSLPVTPGEPASISCRSSKSLLHSSGNTYLYWFLQKPGQSPQLLISRMSNLASGVPDRFSGSGSGTDFTLKISRVEAEDVGVYYCMQHLEYPYTFGGGTKVEIKR
notes: also called humanized 2B2
Turning to B9, the EC50 in assay [5] is 0.27 mg/L; in assay [2] it was 0.06 mg/L; in assay [4], 0.04 mg/L.

B10: 956E02 Parental (antibody, human IgG1, kappa, V domains shown)
VH: QVQLVQSGAEVKKPGASVKVSCKASGYTFTGYYINWVRQAPGQGLEWMGWINPNSGDTNYAQKFQGRVTMTRDPSISTAYMELSRLRSDDTAVYYCARENSGYGKLFDYWGQGTLVTVSS
VL: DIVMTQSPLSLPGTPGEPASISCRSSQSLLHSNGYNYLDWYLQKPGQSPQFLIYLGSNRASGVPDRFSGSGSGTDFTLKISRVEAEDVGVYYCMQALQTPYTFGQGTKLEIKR
On to B10, for which the Kd worked out at 0.013 µM in assay [1] and 0.999 µM in assay [3]. Further, the figures for the EC50 in assay [2] and in assay [4] were 0.12 mg/L and 0.13 mg/L, respectively.

B11: 914M09 Parental (antibody, human IgG1, kappa, V domains shown)
VH: QVQLQESGPGLVKPSETLSLTCAVSGGSISSYYWNLIRQPAGKGLEWIGRIYTSGSTNYNPSLKSRVTMSVDTSKNQFSLKLSSVTAADTAVYYCARDSGGFYYYYGMDVWGQGTTVTVSS
VL: DIQLTQSPSFLSASVGDRVTITCRASQGISSYLAWYQQKPGKAPKLLIYAASTLQGGVPSRFSGSGSGTEFTLTISSLQPEDFATYHCQQLNSYPWTFGQGTKVEIKR
In the case of B11, the Kd in assay [1] was determined as 0.01 µM; in assay [3], 0.83 µM. The EC50 is 0.25 mg/L in assay [5], 0.1 mg/L in assay [2] and 0.08 mg/L in assay [4].

B12: 942K11 Parental (antibody, human IgG1, kappa, V domains shown)
VH: QVQLQESGPGLVKPSETLSLTCTVSGGSISSYYWTWIRQPAGKGLEWIGRVFTSESTNYNPSLKNRVTMSVDTSKNQFSLRLNSVTAADTAMYYCARDRGTYLGGFDPWGQGTLVTVSS
VL: not shown
Regarding B12, the dissociation constant Kd in assay [1] turned out to be 0.18 µM; in assay [3], 1.26 µM. In addition, the concentration giving a half-maximal response (EC50) was 0.2 mg/L in assay [2] and 11.6 mg/L in assay [4].
